In patent US20200270588A1, “GLUCOSYL TRANSFERASE POLYPEPTIDES AND METHODS OF USE” (Syngenta Participations AG, priority 2017, published 2020):
Numbering of substitutions follows the chain as printed. Numbers in names are those of the source.

What was measured:
[1] = UDP luminescence plate assay of E. coli extracts, saturation mutants of SEQ ID NO: 1, herbicide V; type: biochemical, Zea mays; details: improvement factor relative to w/t bx9 = 1.0, rounded to nearest 0.5; extract activity basis; compound V
[2] = UDP luminescence plate assay of E. coli extracts, mutants of SEQ ID No: 1, 2 mM metribuzin; type: biochemical, Zea mays; details: for SIGNAL: metribuzin signal of mutant divided by metribuzin signal of w/t bx9 / luminescence signal with metribuzin / SIGNAL: metribuzin signal of mutant divided by the signal of w/t bx9 / luminescence signal observed with 2 mM metribuzin: 2 mM metribuzin; for luminescence signal with metribuzin: H24A null background 1.00E+05 not subtracted; for RATIO of the metribuzin signal to the DMSO signal: 2 mM metribuzin vs DMSO control, same mutant; for SIGNAL: metribuzin signal of mutant divided by the signal of w/t bx9: relative to bx9 w/t; for luminescence signal in the DMSO control: mutants of SEQ ID No: 1, DMSO in place of metribuzin (background UDP-glucose hydrolysis); for luminescence signal observed with 2 mM metribuzin: mutants of SEQ ID No: 1 in E. coli extracts, UDP luminescence
How it was run: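 Extracts of E. coli BL21 DE3 expressing C-terminally His-tagged SEQ ID NO:1 variants incubated with 2 mM metribuzin; UDP formed read by UDP-Glo luminescence against a UDP standard curve, with optional 95 C stop. Mutants ranked by metribuzin/DMSO signal ratio and signal increase over wild-type bx9.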

B1: A334N: bx9 SEQ ID NO:1 mutant (protein)
chain: MASSRTGAGAGGRVVVFPFPFQGHFNPVMRLARALHARGLAITVFHSGALDPADYPADYRFVPVTVEADPKLLASEDIAAIVTTLNASCDAPFRARLSALLAAEGRDSVRCVFTDVSWNAVLTASSDLGVPALGMMTASAASLRDYMAYRTLIDKGYLPVKEERKEDPVPELPPYLVKDLLRVDTSDLEEFAELLARTVTAARRASGLIFNTFPLIETDTLAEIHKALSVPVFAVAPLNKLVPTATASLHGVVQADRGCLQWLDTQQPGSVLYVSFGSMAAMDPHEFVELAWGLADSKRPFVWVVRPNLIRGFESGALPDGVEDEVRGRGIVVNWAPQEEVLAHPAVGGFLTHNGWNSTVEAISEGVPMVCCPRHGDQFGNMRYVCDVWKVGTELVGEQLERGQVKAAIDRLFGTKEGEEIKERMKEFKIAAAKGIGIGVDVDETASPRTDLTDLVDLIKSF
modifications: Zea mays
- Preferred amino acid substitutions and (IF) based on RLU/min/ul [1]: N(1.0)
- SIGNAL: metribuzin signal of mutant divided by metribuzin signal of w/t bx9 [2]: 1.56
- luminescence signal with metribuzin [2]: 1.93E+05

B2: G376L: bx9 SEQ ID NO:1 mutant (protein)
chain: B1 chain with N334A, G376L
modifications: Zea mays
- Most Preferred amino acid substitutions and (IF) based on RLU/min/ul [1]: L(2.0)
- RATIO of the metribuzin signal to the DMSO signal [2]: 0.99
- SIGNAL: metribuzin signal of mutant divided by the signal of w/t bx9 [2]: 1.27
- luminescence signal in the DMSO control [2]: 3.59E+05
- luminescence signal observed with 2 mM metribuzin [2]: 3.56E+05

B3: A334V: bx9 SEQ ID NO:1 mutant (protein)
chain: B1 chain with N334V
modifications: Zea mays
- Preferred amino acid substitutions and (IF) based on RLU/min/ul [1]: S,Q,V,L(1.5)
- SIGNAL: metribuzin signal of mutant divided by the signal of w/t bx9 [2]: 1.57
- luminescence signal in the DMSO control [2]: 4.80E+05
- luminescence signal observed with 2 mM metribuzin [2]: 4.40E+05

B4: I363M: bx9 SEQ ID NO:1 mutant (protein)
chain: B1 chain with N334A, I363M
modifications: Zea mays
- Most Preferred amino acid substitutions and (IF) based on RLU/min/ul [1]: L,M(3.0)
- RATIO of the metribuzin signal to the DMSO signal [2]: 0.90
- SIGNAL: metribuzin signal of mutant divided by the signal of w/t bx9 [2]: 1.67
- luminescence signal in the DMSO control [2]: 5.22E+05
- luminescence signal observed with 2 mM metribuzin [2]: 4.68E+05

B5: T220F: bx9 SEQ ID NO:1 mutant (protein)
chain: B1 chain with T220F, N334A
modifications: Zea mays
- Most Preferred amino acid substitutions and (IF) based on RLU/min/ul [1]: 3.5
- SIGNAL: metribuzin signal of mutant divided by the signal of w/t bx9 [2]: 2.22
- luminescence signal in the DMSO control [2]: 7.87E+05
- luminescence signal observed with 2 mM metribuzin [2]: 6.21E+05

B6: V199M: bx9 SEQ ID NO:1 mutant (protein)
chain: B1 chain with V199M, N334A
modifications: Zea mays
- Preferred amino acid substitutions and (IF) based on RLU/min/ul [1]: M,N(1.0)
- RATIO of the metribuzin signal to the DMSO signal [2]: 1.02
- SIGNAL: metribuzin signal of mutant divided by the signal of w/t bx9 [2]: 0.92
- luminescence signal in the DMSO control [2]: 2.53E+05
- luminescence signal observed with 2 mM metribuzin [2]: 2.58E+05

B7: A334S: bx9 SEQ ID NO:1 mutant (protein)
chain: B1 chain with N334S
modifications: Zea mays
- Preferred amino acid substitutions and (IF) based on RLU/min/ul [1]: S,Q,V,L(1.5)
- SIGNAL: metribuzin signal of mutant divided by metribuzin signal of w/t bx9 [2]: 0.98
- luminescence signal with metribuzin [2]: 1.21E+05

B8: A202T: bx9 SEQ ID NO:1 mutant (protein)
chain: B1 chain with A202T, N334A
modifications: Zea mays
- Preferred amino acid substitutions and (IF) based on RLU/min/ul [1]: T,I,V,L,F(1.5)
- SIGNAL: metribuzin signal of mutant divided by the signal of w/t bx9 [2]: 0.93
- luminescence signal in the DMSO control [2]: 2.52E+05
- luminescence signal observed with 2 mM metribuzin [2]: 2.61E+05

B9: A202S: bx9 SEQ ID NO:1 mutant (protein)
chain: B1 chain with A202S, N334A
modifications: Zea mays
- Preferred amino acid substitutions and (IF) based on RLU/min/ul [1]: S,I,C,M(1.0)
- RATIO of the metribuzin signal to the DMSO signal [2]: 0.94
- SIGNAL: metribuzin signal of mutant divided by the signal of w/t bx9 [2]: 0.91
- luminescence signal in the DMSO control [2]: 2.70E+05
- luminescence signal observed with 2 mM metribuzin [2]: 2.53E+05

B10: A334Q: bx9 SEQ ID NO:1 mutant (protein)
chain: B1 chain with N334Q
modifications: Zea mays
- Preferred amino acid substitutions and (IF) based on RLU/min/ul [1]: S,Q,V,L(1.5)
- SIGNAL: metribuzin signal of mutant divided by the signal of w/t bx9 [2]: 1.22
- luminescence signal in the DMSO control [2]: 4.88E+05
- luminescence signal observed with 2 mM metribuzin [2]: 3.40E+05

B11: L143Y: bx9 SEQ ID NO:1 mutant (protein)
chain: B1 chain with L143Y, N334A
modifications: Zea mays
- Preferred amino acid substitutions and (IF) based on RLU/min/ul [1]: M,Y(1.0)
- SIGNAL: metribuzin signal of mutant divided by the signal of w/t bx9 [2]: 1.06
- luminescence signal in the DMSO control [2]: 2.77E+05
- luminescence signal observed with 2 mM metribuzin [2]: 2.98E+05

B12: L143M: bx9 SEQ ID NO:1 mutant (protein)
chain: B1 chain with L143M, N334A
modifications: Zea mays
- Preferred amino acid substitutions and (IF) based on RLU/min/ul [1]: M,Y(1.0)
- RATIO of the metribuzin signal to the DMSO signal [2]: 1.04
- SIGNAL: metribuzin signal of mutant divided by the signal of w/t bx9 [2]: 1.02
- luminescence signal in the DMSO control [2]: 2.74E+05
- luminescence signal observed with 2 mM metribuzin [2]: 2.86E+05

B13: T220H: bx9 SEQ ID NO:1 mutant (protein)
chain: B1 chain with T220H, N334A
modifications: Zea mays
- Most Preferred amino acid substitutions and (IF) based on RLU/min/ul [1]: H,P(4.0)
- SIGNAL: metribuzin signal of mutant divided by the signal of w/t bx9 [2]: 1.82
- luminescence signal in the DMSO control [2]: 5.47E+05
- luminescence signal observed with 2 mM metribuzin [2]: 5.08E+05

B14: F19M: bx9 SEQ ID NO:1 mutant (protein)
chain: B1 chain with F19M, N334A
modifications: Zea mays
- Preferred amino acid substitutions and (IF) based on RLU/min/ul [1]: M(1.0)
- SIGNAL: metribuzin signal of mutant divided by metribuzin signal of w/t bx9 [2]: 0.86
- luminescence signal with metribuzin [2]: 1.07E+05
- SIGNAL: metribuzin signal of mutant divided by the signal of w/t bx9 [2]: 0.99
- luminescence signal in the DMSO control [2]: 1.92E+05
- luminescence signal observed with 2 mM metribuzin [2]: 2.76E+05

B15: A334R: bx9 SEQ ID NO:1 mutant (protein)
chain: B1 chain with N334R
modifications: Zea mays
- Most Preferred amino acid substitutions and (IF) based on RLU/min/ul [1]: K,R(2.0)
- SIGNAL: metribuzin signal of mutant divided by metribuzin signal of w/t bx9 [2]: 1.94
- luminescence signal with metribuzin [2]: 2.39E+05

B16: T220W: bx9 SEQ ID NO:1 mutant (protein)
chain: B1 chain with T220W, N334A
modifications: Zea mays
- Most Preferred amino acid substitutions and (IF) based on RLU/min/ul [1]: 3.5
- SIGNAL: metribuzin signal of mutant divided by the signal of w/t bx9 [2]: 1.59
- luminescence signal in the DMSO control [2]: 4.99E+05
- luminescence signal observed with 2 mM metribuzin [2]: 4.44E+05

B17: A334L: bx9 SEQ ID NO:1 mutant (protein)
chain: B1 chain with N334L
modifications: Zea mays
- Preferred amino acid substitutions and (IF) based on RLU/min/ul [1]: S,Q,V,L(1.5)
- SIGNAL: metribuzin signal of mutant divided by the signal of w/t bx9 [2]: 1.51
- luminescence signal in the DMSO control [2]: 5.19E+05
- luminescence signal observed with 2 mM metribuzin [2]: 4.22E+05

B18: G376M: bx9 SEQ ID NO:1 mutant (protein)
chain: B1 chain with N334A, G376M
modifications: Zea mays
- Preferred amino acid substitutions and (IF) based on RLU/min/ul [1]: C,M(1.0)
- RATIO of the metribuzin signal to the DMSO signal [2]: 1.13
- SIGNAL: metribuzin signal of mutant divided by the signal of w/t bx9 [2]: 1.13
- luminescence signal in the DMSO control [2]: 2.80E+05
- luminescence signal observed with 2 mM metribuzin [2]: 3.15E+05

B19: I363L: bx9 SEQ ID NO:1 mutant (protein)
chain: B1 chain with N334A, I363L
modifications: Zea mays
- Most Preferred amino acid substitutions and (IF) based on RLU/min/ul [1]: L,M(3.0)
- SIGNAL: metribuzin signal of mutant divided by the signal of w/t bx9 [2]: 1.24
- luminescence signal in the DMSO control [2]: 4.00E+05
- luminescence signal observed with 2 mM metribuzin [2]: 3.47E+05

B20: T220P: bx9 SEQ ID NO:1 mutant (protein)
chain: B1 chain with T220P, N334A
modifications: Zea mays
- Most Preferred amino acid substitutions and (IF) based on RLU/min/ul [1]: H,P(4.0)
- SIGNAL: metribuzin signal of mutant divided by the signal of w/t bx9 [2]: 1.57
- luminescence signal in the DMSO control [2]: 5.28E+05
- luminescence signal observed with 2 mM metribuzin [2]: 4.40E+05
